# Source: IntAct's records for PubMed 11238952
# B1: Cyclic AMP-dependent transcription factor ATF-4 (Homo sapiens), P18848 (parent)
# chain: MTEMSFLSSEVLVGDLMSPFDQSGLGAEESLGLLDDYLEVAKHFKPHGFSSDKAKAGSSEWLAVDGLVSPSNNSKEDAFSGTDWMLEKMDLKEFDLDALLGIDDLETMPDDLLTTLDDTCDLFAPLVQETNKQPPQTVNPIGHLPESLTKPDQVAPFTFLQPLPLSPGVLSSTPDHSFSLELGSEVDITEGDRKPDYTAYVAMIPQCIKEEDTPSDNDSGICMSPESYLGSPQHSPSTRGSPNRSLPSPGVLCGSARPKPYDPPGEKMVAAKVKGEKLDKKLKKMEQNKTAATRYRQKKRAEQEALTGECKELEKKNEALKERADSLAKEIQYLKDLIEEVRKARGKKRVP
# Variants of: B1
# Conditions: with BTRC
row,Variant,effect of a mutation on the interaction
1,S219N,decreasing interaction
2,D218N,decreasing interaction

# Variants of: B1
# Conditions: with BTRC
# Remark: another data set of the same source
row,Variant,effect of a mutation on the interaction
1,S219N,disrupting interaction
